In PMC4020936:

Key:
[1] = biological target: C46S-mutant rGlEB1 (G. lamblia); experiment: SDS-PAGE of SEC fractions without DTT; fractions eluted from SEC separated by SDS-PAGE without DTT; shows disulfide-linked dimers only
[2] = biological target: full-length recombinant Giardia lamblia end-binding 1 protein, rGlEB1_(1–238) (G. lamblia); experiment: as above
[3] = biological target: full-length recombinant Giardia lamblia end-binding 1 protein, rGlEB1_(1–238) (G. lamblia); experiment: SEC; about 800 µg rGlEB1 in PBS on Superdex 75 10/300 GL; size markers 75, 29, 14 and 6 kDa; monomer to dimer
[4] = biological target: truncated recombinant G. lamblia EB1, rGlEB1_(1–184) (CH domain and linker) (G. lamblia); experiment: as above
[5] = biological target: C13S-mutant rGlEB1 (G. lamblia); experiment: as above

Substance: C46S-mutant rGlEB1 (natural protein)
- stoichiometry N [1]: 2

Substance: full-length recombinant Giardia lamblia end-binding 1 protein, rGlEB1_(1–238) (natural protein)
- stoichiometry N [2]: 2
- stoichiometry N [3]: 2

Substance: truncated recombinant G. lamblia EB1, rGlEB1_(1–184) (CH domain and linker) (domain or fragment)
- stoichiometry N [4]: 2

Substance: C13S-mutant rGlEB1 (natural protein)
- stoichiometry N [5]: 2
